# Experiments:
# S. aureus = experiment: Antibacterial activity by colony-forming ability of susceptible bacteria; format: cell-based, Staphylococcus aureus
# Method: According to the present invention, the mutant human Group IIA PLA2 of the present invention is characterized by bactericidal activity against gram positive bacteria, such as S. aureus (see Example 3). Antibacterial activity of mutant human Group IIA PLA2 may be quantified by measuring the colony-forming ability of susceptible bacteria that have been incubated with or without increasing amounts of mutant human Group IIA PLA2. Typically, a suspension of 10^6 bacteria/ml (e.g., S. aureus) is exposed to 1-500 ng/ml of mutant human Group IIA PLA2 for 60-90 minutes at 37° C., after which the cells are mixed with molten agar and plated. After overnight growth, bacterial colonies are compared between mutant Group IIA PLA2-treated and untreated cultures.
# S. aureus RN450 = experiment: Bactericidal activity toward S. aureus RN450 in RPMI-1640 medium; format: cell-based, Staphylococcus aureus; details: FIG. 4, 10^6/ml, 1-500 ng/ml, 60 minutes
# Method: The bactericidal activity of wild-type human and recombinant mutant human and rabbit Group IIA PLA2s against Staphylococcus aureus 52A (10^6 per ml)was determined. S. aureus was incubated with 0.01-100 nM of each Group IIA PLA2 and incubated at 37° C. for 2 hours in RPMI-1640 medium containing 10 mM HEPES, pH 7.4 and 1% (w/v) albumin. After incubation, bacterial viability was determined by measuring the colony forming ability of the bacteria in trypticase soy agar. Bacterial colonies were enumerated after 18-24 hours at 37° C. The results are expressed as the percentage of the colony forming units (CFU) of the original bacterial inoculum (i.e. at T=0).
# S. aureus RN450 (10^6/ml) was incubated with 1-500 ng/ml of each Group IIA PLA2 at 37° C. for 60 minutes in RPMI-1640 medium containing 10 mM HEPES, pH 7.4 and 1% (w/v) albumin. Bacterial viability was determined as in Example 3.
# [1] = tested on: S. aureus RN450 and two clinical isolates, strains 5A (MRSA) and 18; experiment: Bactericidal activity toward S. aureus RN450 and clinical isolates 5A and 18 in 70% pooled human sera; format: cell-based, Staphylococcus aureus; details: FIGS. 4 and 5; each of several strains; laboratory medium and 70% human sera, 90 minutes
# Method: S. aureus RN450 and two clinical isolates, strains 5A (MRSA) and 18 (10^7/ml were incubated with 1-500 ng/ml of each Group IIA PLA2 at 37° C. for 90 minutes in 70% (v/v) pooled human sera diluted in Hanks' balanced salts solution and buffered with 10 mM HEPES, pH7.4.
# [2] = tested on: Reynolds strain of Staphylococcus aureus; experiment: Efficacy of administered mutant PLA2 against S. aureus infection in vivo (i.p. infection in mice); set-up: species or system CD/1 mice
# Method: Bacteria: Reynolds strain of Staphylococcus aureus (encapsulated; grown overnight on Columbia agar to maximize encapsulation as in experiments shown in Example 6).
# Administration of bacteria: 2×10^7/ml in 0.2 ml of sterile RPMI supplemented with 10 mM HEPES (pH 7.4) and 1% bovine serum albumin. Intraperitoneal (i.p.) inoculation.
# Adminstration of PLA2: 15 μg/0.2 ml of above medium i.p. approx. 10-15 min after inoculation of bacteria. Control animals received medium alone. Enzyme administered was Mutant [G72K.T103K] Group IIA PLA 2.
# a) @ 30, 60, 120, and 240 min after infection, blood samples taken from tail vein from each of 4 animals in control and PLA2-treated groups. There were a total of 16 animals in each group; each animal was bled only once in this time period. Levels of bacteremia were assessed by measurement of bacterial CFU in blood.
# b) @ 1 day after infection, 8 animals from each group were sacrificed. Blood was collected again to measure bacteremia and the peritoneal cavity was washed and inspected to look macroscopically for abscesses (none seen) and measure intraperitoneal bacteria by assay of CFU.
# c) @ 6 days after infection, the remaining 8 animals from each group were sacrificed and infection in blood and peritoneal cavity was measured as above (still no abscesses seen). This animal model produces local and disseminated infection in control animals that is eventually self-limiting. The level of metastatic infection is greatest at approx. 6 days. In addition, kidneys were excised, weighed (no significant difference between animals within and between treatment groups) and homogenized to facilitate assay of bacterial CFU within infected kidney (i.e. representing metastatic infection).
# Staphylococcus aureus = details: 100 ng/ml in biological fluids; 10^6 S. aureus cells/ml, incl. multi-drug resistant clinical isolates; cited from earlier work
Molecule,antibacterial activity relative to human WT homologue (S. aureus),antibacterial activity compared with wild-type human Group IIA PLA2 (S. aureus RN450),bactericidal activity compared with WT rabbit Group IIA PLA2 (S. aureus RN450),activity compared with wild-type human Group IIA PLA2 [1],activity compared with wild-type rabbit enzyme [1],"abscesses seen ([2]; 6 days after infection, controls two of 16)",treatment of S. aureus infection in vivo ([2]; Example 7),"S. aureus bacteremia (CFU in blood) ([2]; FIG. 10, 15 μg i.p., 30, 60, 120, 240 min after infection)","metastatic kidney infection caused by S. aureus (CFU in kidney) ([2]; FIG. 11, 15 μg i.p., 6 days after infection)",S. aureus cells killed (Staphylococcus aureus)
"mutant human Group IIA PLA2: recombinant double mutant G72K.T103K human Group IIA phospholipase A2, protein SEQ. ID. NO. 2, expressed in E. coli (protein) NLVNFHRLIKLTTGKEAALSYGFYGCHCGVGGRGSPKDATDRCCVTHDCCYKRLEKRGCGTKFLSYKFSNSKSRITCAKQDSCRSQLCECDKAAATCFARNKKTYNKKYQYYSNKHCRGSTPRC",10 ×,increased antibacterial activity,nearly equivalent,significantly more active,essentially as active,none were seen,effective,reduces,reduces,
"wild-type human Group IIA PLA2: wild-type human Group IIA 14 kDa phospholipase A2, comparator enzyme (protein, UniProt P14555 21-144, looked up) Phospholipase A2, membrane …: NLVNFHRMIKLTTGKEAALSYGFYGCHCGVGGRGSPKDATDRCCVTHDCCYKRLEKRGCGTKFLSYKFSNSGSRITCAKQDSCRSQLCECDKAAATCFARNKTTYNKKYQYYSNKHCRGSTPRC",,,,,,,,,,greater than 99%

# From US6767538B2, “Recombinant antibacterial group IIA phospholipase A2 and methods of use thereof” (New York University, priority 1999, dated 2004)
